The source of these data is article PMC4837482, “The complex binding mode of the peptide hormone H2 relaxin to its receptor RXFP1” (Nature Communications, 2016).

What all share (assay): cAMP activity assay (pCRE β-galactosidase reporter), transfected HEK293T cells
Common to all, as to format: cell-based

The target of one assay is T1, RXFP1 A55S (Homo sapiens, UniProt Q9HBX9, A77S).
T1 construct: cells expressing full-length RXFP1 and mutants; expressed in transfected cells; host or cells: HEK293T
T1 sequence (Q9HBX9 23-757 A77S limits assumed): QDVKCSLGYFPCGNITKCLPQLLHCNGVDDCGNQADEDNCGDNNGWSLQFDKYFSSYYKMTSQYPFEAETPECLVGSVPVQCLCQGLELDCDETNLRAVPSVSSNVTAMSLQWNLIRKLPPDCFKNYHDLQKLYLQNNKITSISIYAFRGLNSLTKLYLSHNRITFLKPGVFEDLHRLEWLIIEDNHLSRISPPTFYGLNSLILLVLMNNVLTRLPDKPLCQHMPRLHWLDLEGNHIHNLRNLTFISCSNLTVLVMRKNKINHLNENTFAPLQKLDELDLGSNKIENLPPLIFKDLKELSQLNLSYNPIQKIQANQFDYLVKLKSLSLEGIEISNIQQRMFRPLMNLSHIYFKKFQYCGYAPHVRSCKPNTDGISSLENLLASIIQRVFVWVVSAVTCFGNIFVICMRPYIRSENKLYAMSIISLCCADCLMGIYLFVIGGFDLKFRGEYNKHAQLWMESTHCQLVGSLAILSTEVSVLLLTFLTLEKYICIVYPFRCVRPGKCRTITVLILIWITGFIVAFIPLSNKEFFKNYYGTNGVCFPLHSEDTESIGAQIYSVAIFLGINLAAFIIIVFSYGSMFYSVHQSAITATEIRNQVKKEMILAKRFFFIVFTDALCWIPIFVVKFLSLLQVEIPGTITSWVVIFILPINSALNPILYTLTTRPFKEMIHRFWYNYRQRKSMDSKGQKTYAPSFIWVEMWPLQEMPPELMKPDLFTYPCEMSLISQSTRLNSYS
Conditions: construct A55S, ±s.e.m. The procedure, abridged:
(§1)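 Relaxin-stimulated cells go through overnight storage at −80 °C, two 10-min lysis steps at pH 8.0 with shaking, and chlorophenol red-β-D-galactopyranoside development. Output at 570 nm is scaled against the 5 μM Forskolin maximum.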

The next assay concerns the target T2, RXFP1 A68^Δ (Homo sapiens, UniProt Q9HBX9, DEL90-90).
T2 construct: transiently transfected human embryonic kidney (HEK) 293T cells expressing full-length RXFP1 and mutants; expressed in transfected cells; host or cells: HEK293T
T2 sequence (Q9HBX9 with tags, fused parts or gaps DEL90-90 limits assumed): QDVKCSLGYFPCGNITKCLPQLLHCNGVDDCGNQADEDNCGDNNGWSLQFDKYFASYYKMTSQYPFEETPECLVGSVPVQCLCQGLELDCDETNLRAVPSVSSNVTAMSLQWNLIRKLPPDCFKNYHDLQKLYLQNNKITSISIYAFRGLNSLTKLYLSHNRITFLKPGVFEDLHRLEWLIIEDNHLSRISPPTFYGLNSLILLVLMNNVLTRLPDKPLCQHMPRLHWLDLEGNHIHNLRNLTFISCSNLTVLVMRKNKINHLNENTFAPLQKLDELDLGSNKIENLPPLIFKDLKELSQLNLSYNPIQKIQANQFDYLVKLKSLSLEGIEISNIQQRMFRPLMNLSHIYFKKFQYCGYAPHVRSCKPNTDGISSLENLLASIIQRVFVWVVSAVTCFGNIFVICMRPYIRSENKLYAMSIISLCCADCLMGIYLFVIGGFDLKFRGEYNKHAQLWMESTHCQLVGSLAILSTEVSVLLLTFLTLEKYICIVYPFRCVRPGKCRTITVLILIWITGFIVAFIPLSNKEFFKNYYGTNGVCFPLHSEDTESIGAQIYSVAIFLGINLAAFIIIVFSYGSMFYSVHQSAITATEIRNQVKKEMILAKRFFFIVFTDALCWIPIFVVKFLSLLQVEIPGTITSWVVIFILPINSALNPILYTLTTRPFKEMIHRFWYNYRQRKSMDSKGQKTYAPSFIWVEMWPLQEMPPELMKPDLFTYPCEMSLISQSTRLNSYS
The conditions noted are these: construct A68^Δ, ±s.e.m. A digest of the protocol: as §1

The target in another assay is T3, RXFP1 C40A^ins (Homo sapiens, UniProt Q9HBX9, INS62A).
T3 construct: cells expressing full-length RXFP1 and mutants; expressed in transfected cells; host or cells: HEK293T
T3 sequence (Q9HBX9 with tags, fused parts or gaps INS62A limits assumed): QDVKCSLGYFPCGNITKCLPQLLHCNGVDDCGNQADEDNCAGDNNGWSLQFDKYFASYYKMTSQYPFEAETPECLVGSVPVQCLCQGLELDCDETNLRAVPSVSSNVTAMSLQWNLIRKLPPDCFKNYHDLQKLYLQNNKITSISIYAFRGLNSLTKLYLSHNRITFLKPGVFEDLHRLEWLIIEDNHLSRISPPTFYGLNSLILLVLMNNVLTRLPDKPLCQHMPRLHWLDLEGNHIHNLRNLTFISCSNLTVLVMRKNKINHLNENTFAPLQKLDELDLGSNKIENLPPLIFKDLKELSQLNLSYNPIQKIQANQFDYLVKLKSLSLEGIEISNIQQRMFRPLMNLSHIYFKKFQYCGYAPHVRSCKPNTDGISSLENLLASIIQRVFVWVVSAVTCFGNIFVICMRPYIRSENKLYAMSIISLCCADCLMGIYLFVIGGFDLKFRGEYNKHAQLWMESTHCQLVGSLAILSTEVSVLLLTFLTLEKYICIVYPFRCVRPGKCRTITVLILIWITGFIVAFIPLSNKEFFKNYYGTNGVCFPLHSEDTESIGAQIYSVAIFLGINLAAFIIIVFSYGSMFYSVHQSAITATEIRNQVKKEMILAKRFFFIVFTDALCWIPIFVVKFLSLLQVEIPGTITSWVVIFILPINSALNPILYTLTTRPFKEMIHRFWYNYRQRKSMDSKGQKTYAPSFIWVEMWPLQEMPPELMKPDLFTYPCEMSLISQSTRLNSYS
The conditions noted are these: construct C40A^ins. The procedure, abridged:
as §1

Where [1] appears, read: percentage of maximum response to 5 μM Forskolin.

Consider “H2 relaxin: two-chain 6-kDa peptide hormone structurally related to insulin; recombinant human gene-2 H2 relaxin provided by Corthera”, for which the “H2 relaxin pEC50” value with RXFP1 A55S (cAMP reporter) is on record as 11.39±0.13 (5); in the assay with RXFP1 A68^Δ (cAMP reporter), 11.18±0.02 (3); with RXFP1 C40A^ins (cAMP reporter) it was “No activity”. Further, the “H2 relaxin Emax” value in the assay with RXFP1 A55S (setting [1]) was 154.43±39.77 (5) %; with RXFP1 A68^Δ (setting [1]), 93.78±3.19 (3) %; with RXFP1 C40A^ins (setting [1]), “No activity”.
